T1: His-tagged recombinant human glycyl-tRNA synthetase (GRS), 685 amino acids (human, UniProt P41250 55-739)
T1 construct: Expressed in E. coli; also called His-GRS; his-tagged GRS; not shown: His tag from vector pET-28a (EcoRI/XhoI)
T1 sequence: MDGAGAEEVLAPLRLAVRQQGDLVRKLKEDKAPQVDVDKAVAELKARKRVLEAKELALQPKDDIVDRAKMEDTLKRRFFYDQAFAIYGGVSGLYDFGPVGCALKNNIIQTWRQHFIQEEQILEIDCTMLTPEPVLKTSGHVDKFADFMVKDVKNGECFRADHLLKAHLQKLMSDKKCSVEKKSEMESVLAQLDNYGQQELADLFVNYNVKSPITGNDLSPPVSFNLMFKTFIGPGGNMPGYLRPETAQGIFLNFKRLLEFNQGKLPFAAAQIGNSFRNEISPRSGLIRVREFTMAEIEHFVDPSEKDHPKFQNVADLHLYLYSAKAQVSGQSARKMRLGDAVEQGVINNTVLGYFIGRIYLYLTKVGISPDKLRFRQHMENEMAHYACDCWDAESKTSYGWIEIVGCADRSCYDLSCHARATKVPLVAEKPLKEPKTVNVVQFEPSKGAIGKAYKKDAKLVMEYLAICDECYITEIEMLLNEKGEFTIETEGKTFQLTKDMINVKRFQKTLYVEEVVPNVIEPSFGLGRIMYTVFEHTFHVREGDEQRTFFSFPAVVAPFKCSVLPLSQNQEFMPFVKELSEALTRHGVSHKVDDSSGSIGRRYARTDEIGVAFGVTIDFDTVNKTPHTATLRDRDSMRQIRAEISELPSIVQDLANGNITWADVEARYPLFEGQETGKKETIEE


biological target: T1, His-tagged recombinant human …; assay: ELISA: plate coated with His-GRS or BSA, Fc-fused cadherin added, detected with anti-human IgG1 Fc-HRP; axis OD 490nm
Experimental: (A) A panel of Fc-fused soluble cadherin family proteins was bound to His-tagged GRS or to BSA-coated plates, and complexes were detected with the IgG1 Fc-HRP (Thermo) reagent. (B) To confirm the binding between cadherins and GRS, Fc-CDH2, 6 and 18 were incubated with His-GRS. Fc-CDHs were precipitated with protein A/G agarose and co-precipitated GRS was determined by immunoblotting. (C) To calculate the equilibrium dissociation constant (IQ), immobilized Fc-fused (to gold chips) cadherins were incubated with GRS (31.25 nM˜1 uM). Binding of GRS to CDH6 was determined by surface plasmon resonance and expressed as resonance units (RU). (D) To confirm the binding between CDH6 and GRS domain peptides, Fc-CDH6 was incubated with different domains (F1, 2, 3 and 4) of GRS that were expressed as the GST fusion proteins. GST-GRS proteins were precipitated with GSH-sepharose beads and co-precipitated CDH6 was determined by immunoblotting. (E) Five difference cancers cells were determined for the expression of CDH6 by immunoblotting. (F) HCT116 cells were transfected with non-specific siRNA controls (si-con) or two differently designed siRNAs targeting CDH6 (#1 and #2), treated with biotinylated GRS (15 nM), and the binding of GRS was analyzed by immunoblotting. (G) HCT116 cells were transfected with si-con and si-CDH6 as described above, and cell binding of GRS was measured by FACS analysis. (H) HCT116 cells were incubated with His-GRS (150 nM). To neutralize the effects of GRS, Fc-fused CDH6 (300 nM) was added and the cell viability was determined by the MTT assay. Error bars represent standard deviation. (I) The binding between CDH6 and GRS domain peptides was again confirmed by ELISA assay.
To identifying the receptor of GRS, a Maxisorp plate (Nunc, Rochester, N.Y.) was used for an ELISA detection. The plate were coated with purified his-tagged GRS (1 ug/ml) or BSA (1 ug/ml) in phosphate buffer saline and then blocked (PBS, 4% non-fat milk). Fc-fusion cadherin family proteins (1 ug/ml) were added to the plate and after washing with PBST (0.05% Tween20), the plates were incubated with anti-human IgG1 Fc-HRP (Thermo, Waltham, Mass.). […]

Binder	binding result
CDH1 (Fc fusion, not shown: a dimerising Fc or GST; small tags and cut ends, one of the remaining CDHs (group m5); also called Fc-CDH1; Fc-fused soluble cadherin-1) DWVIPPISCPENEKGPFPKNLVQIKSNKDKEGKVFYSITGQGADTPPVGVFIIERETGWLKVTEPLDRERIATYTLFSHAVSSNGNAVEDPMEILITVTDQNDNKPEFTQEVFKGSVMEGALPGTSVMEVTATDADDDVNTYNAAIAYTILSQDPELPDKNMFTINRNTGVISVVTTGLDRESFPTYTLVVQAADLQGEGLSTTATAVITVTDTNDNPPIFNPTTYKGQVPENEANVVITTLKVTDADAPNTPAWEAVYTILNDDGGQFVVTTNPVNNDGILKTAKGLDFEAKQQYILHVAVTNVVPFEVSLTTSTATVTVDVLDVNEAPIFVPPEKRVEVSEDFGVGQEITSYTAQEPDTFMEQKITYRIWRDTANWLEINPDTGAISTRAELDREDFEHVKNSTYTALIIATDNGSPVATGTGTLLLILSDVNDNAPIPEPRTIFFCERNPKPQVINIIDADLPPNTSPFTAELTHGASANWTIQYNDPTQESIILKPKMALEVGDYKINLKLMDNQNKDQVTTLEVSVCDCEGAAGVCRKAQPVEAGLQIPA	no binding (tested: 1 ug/ml (single concentration))
CDH20 (Fc fusion, not shown: a dimerising Fc or GST; small tags and cut ends, one of the remaining CDHs (group m5); also called Fc-CDH20; Fc-fused soluble cadherin-20) SWVWNQFFVLEEYTGTDPLYVGKLHSDMDRGDGSIKYILSGEGAGIVFTIDDTTGDIHAIQRLDREERAQYTLRAQALDRRTGRPMEPESEFIIKIQDINDNEPKFLDGPYVATVPEMSPVGTSVIQVTATDADDPTYGNSARVVYSILQGQPYFSVDSKTGVIRTALMNMDREAKEYYEVIIQAKDMGGQLGGLAGTTTVNITLSDVNDNPPRFPQKHYQMSVLESAPISSTVGRVFAKDLDEGINAEMKYTIVDGDGADAFDISTDPNFQVGIITVKKPLSFESKKSYTLKVEGANPHLEMRFLNLGPFQDTTTVHISVEDVDEPPVFEPGFYFVEVPEDVAIGTTIQIISAKDPDVTNNSIRYSIDRSSDPGRFFYVDITTGALMTARPLDREEFSWHNITVLAMEMNNPSQVGSVPVTIKVLDVNDNAPEFPRFYEAFVCENAKAGQLIQTVSAVDQDDPRNGQHFYYSLAPEAANNPNFTIRDNQDNTARILTRRSGFRQQEQSVFHLPILIADSGQPVLSSTGTLTIQVCSCDDDGHVMSCSPEAYMLPVSLSR	no binding (tested: 1 ug/ml (single concentration))
CDH16 (Fc fusion, not shown: a dimerising Fc or GST; small tags and cut ends, one of the remaining CDHs (group m5); also called Fc-CDH16; Fc-fused soluble cadherin-16) KAQPAELSVEVPENYGGNFPLYLTKLPLPREGAEGQIVLSGDSGKATEGPFAMDPDSGFLLVTRALDREEQAEYQLQVTLEMQDGHVLWGPQPVLVHVKDENDQVPHFSQAIYRARLSRGTRPGIPFLFLEASDRDEPGTANSDLRFHILSQAPAQPSPDMFQLEPRLGALALSPKGSTSLDHALERTYQLLVQVKDMGDQASGHQATATVEVSIIESTWVSLEPIHLAENLKVLYPHHMAQVHWSGGDVHYHLESHPPGPFEVNAEGNLYVTRELDREAQAEYLLQVRAQNSHGEDYAAPLELHVLVMDENDNVPICPPRDPTVSIPELSPPGTEVTRLSAEDADAPGSPNSHVVYQLLSPEPEDGVEGRAFQVDPTSGSVTLGVLPLRAGQNILLLVLAMDLAGAEGGFSSTCEVEVAVTDINDHAPEFITSQIGPISLPEDVEPGTLVAMLTAIDADLEPAFRLMDFAIERGDTEGTFGLDWEPDSGHVRLRLCKNLSYEAAPSHEVVVVVQSVAKLVGPGPGPGATATVTVLVERVMPPPKLDQESYEASVPISAPAGSFLLTIQPSDPISRTLRFSLVNDSEGWLCIEKFSGEVHTAQSLQGAQPGDTYTVLVEAQDTDEPRLSASAPLVIHFLKAPPAPALTLAPVPSQYLCTPRQDHGLIVSGPSKDPDLASGHGPYSFTLGPNPTVQRDWRLQTLNGSHAYLTLALHWVEPREHIIPVVVSHNAQMWQLLVRVIVCRCNVEGQCMRKVGRMKGMPTKLSA	no binding (tested: 1 ug/ml (single concentration))
CDH8 (Fc fusion, not shown: a dimerising Fc or GST; small tags and cut ends, one of the remaining CDHs (group m5); also called Fc-CDH8; Fc-fused soluble cadherin-8) GWVWNQMFVLEEFSGPEPILVGRLHTDLDPGSKKIKYILSGDGAGTIFQINDVTGDIHAIKRLDREEKAEYTLTAQAVDWETSKPLEPPSEFIIKVQDINDNAPEFLNGPYHATVPEMSILGTSVTNVTATDADDPVYGNSAKLVYSILEGQPYFSIEPETAIIKTALPNMDREAKEEYLVVIQAKDMGGHSGGLSGTTTLTVTLTDVNDNPPKFAQSLYHFSVPEDVVLGTAIGRVKANDQDIGENAQSSYDIIDGDGTALFEITSDAQAQDGIIRLRKPLDFETKKSYTLKVEAANVHIDPRFSGRGPFKDTATVKIVVEDADEPPVFSSPTYLLEVHENAALNSVIGQVTARDPDITSSPIRFSIDRHTDLERQFNINADDGKITLATPLDRELSVWHNITIIATEIRNHSQISRVPVAIKVLDVNDNAPEFASEYEAFLCENGKPGQVIQTVSAMDKDDPKNGHYFLYSLLPEMVNNPNFTIKKNEDNSLSILAKHNGFNRQKQEVYLLPIIISDSGNPPLSSTSTLTIRVCGCSNDGVVQSCNVEAYVLPIGLSM	no binding (tested: 1 ug/ml (single concentration))
CDH5 (Fc fusion, not shown: a dimerising Fc or GST; small tags and cut ends, one of the remaining CDHs (group m5); also called Fc-CDH5; Fc-fused soluble cadherin-5) DWIWNQMHIDEEKNTSLPHHVGKIKSSVSRKNAKYLLKGEYVGKVFRVDAETGDVFAIERLDRENISEYHLTAVIVDKDTGENLETPSSFTIKVHDVNDNWPVFTHRLFNASVPESSAVGTSVISVTAVDADDPTVGDHASVMYQILKGKEYFAIDNSGRIITITKSLDREKQARYEIVVEARDAQGLRGDSGTATVLVTLQDINDNFPFFTQTKYTFVVPEDTRVGTSVGSLFVEDPDEPQNRMTKYSILRGDYQDAFTIETNPAHNEGIIKPMKPLDYEYIQQYSFIVEATDPTIDLRYMSPPAGNRAQVIINITDVDEPPIFQQPFYHFQLKENQKKPLIGTVLAMDPDAARHSIGYSIRRTSDKGQFFRVTKKGDIYNEKELDREVYPWYNLTVEAKELDSTGTPTGKESIVQVHIEVLDENDNAPEFAKPYQPKVCENAVHGQLVLQISAIDKDITPRNVKFKFILNTENNFTLTDNHDNTANITVKYGQFDREHTKVHFLPVVISDNGMPSRTGTSTLTVAVCKCNEQGEFTFCEDMAAQVGVSIQ	no binding (tested: 1 ug/ml (single concentration))
CDH13 (Fc fusion, not shown: a dimerising Fc or GST; small tags and cut ends, one of the remaining CDHs (group m5); also called Fc-CDH13; Fc-fused soluble cadherin-13) SIVVSPILIPENQRQPFPRDVGKVVDSDRPERSKFRLTGKGVDQEPKGIFRINENTGSVSVTRTLDREVIAVYQLFVETTDVNGKTLEGPVPLEVIVIDQNDNRPIFREGPYIGHVMEGSPTGTTVMRMTAFDADDPATDNALLRYNIRQQTPDKPSPNMFYIDPEKGDIVTVVSPALLDRETLENPKYELIIEAQDMAGLDVGLTGTATATIMIDDKNDHSPKFTKKEFQATVEEGAVGVIVNLTVEDKDDPTTGAWRAAYTIINGNPGQSFEIHTNPQTNEGMLSVVKPLDYEISAFHTLLIKVENEDPLVPDVSYGPSSTATVHITVLDVNEGPVFYPDPMMVTRQEDLSVGSVLLTVNATDPDSLQHQTIRYSVYKDPAGWLNINPINGTVDTTAVLDRESPFVDNSVYTALFLAIDSGNPPATGTGTLLITLEDVNDNAPFIYPTVAEVCDDAKNLSVVILGASDKDLHPNTDPFKFEIHKQAVPDKVWKISKINNTHALVSLLQNLNKANYNLPIMVTDSGKPPMTNITDLRVQVCSCRNSKVDCNAAG	no binding (tested: 1 ug/ml (single concentration))
CDH11 (Fc fusion, not shown: a dimerising Fc or GST; small tags and cut ends, one of the remaining CDHs (group m5); also called Fc-CDH11; Fc-fused soluble cadherin-11) GWVWNQFFVIEEYTGPDPVLVGRLHSDIDSGDGNIKYILSGEGAGTIFVIDDKSGNIHATKTLDREERAQYTLMAQAVDRDTNRPLEPPSEFIVKVQDINDNPPEFLHETYHANVPERSNVGTSVIQVTASDADDPTYGNSAKLVYSILEGQPYFSVEAQTGIIRTALPNMDREAKEEYHVVIQAKDMGGHMGGLSGTTKVTITLTDVNDNPPKFPQSVYQMSVSEAAVPGEEVGRVKAKDPDIGENGLVTYNIVDGDGMESFEITTDYETQEGVIKLKKPVDFETKRAYSLKVEAANVHIDPKFISNGPFKDTVTVKISVEDADEPPMFLAPSYIHEVQENAAAGTVVGRVHAKDPDAANSPIRYSIDRHTDLDRFFTINPEDGFIKTTKPLDREETAWLNITVFAAEIHNRHQEAKVPVAIRVLDVNDNAPKFAAPYEGFICESDQTKPLSNQPIVTISADDKDDTANGPRFIFSLPPEIIHNPNFTVRDNRDNTAGVYARRGGFSRQKQDLYLLPIVISDGGIPPMSSTNTLTIKVCGCDVNGALLSCNAEAYILNAGLST	no binding (tested: 1 ug/ml (single concentration))

— US20140220596A1 (MEDICINAL BIOCONVERGENCE RESEARCH CENTER, published 2014)
